First the molecules themselves.
B1: TPR t1 (parent)
chain: GACCAAUCUGCCCUCAGAGCUCGAGAACAUCUUCGGAUGCAGAGGAGGCAGGCUUCGGUGGCGCGAUAGCGCCAACGUCCUCAACCUCCAAUGCAUCCCACCACAUGAUGAUGCCUGAAGAGCCUUGGUUUUUUG

The data set covers variants of B1. Kind of data set: polymerase ribozyme fitness, log enrichment relative to wild type (log ratio); higher = more active; in vitro selection for triplet polymerase activity. The method, boiled down: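 In triplicate, a single round of in vitro selection was run on each mutant library, PCR-built and transcribed, covering one subunit of a heterodimeric triplet polymerase ribozyme. Frozen incubation at −7 °C followed annealing with a biotinylated primer, partner subunit and triplets, and extended constructs were then gel-excised, streptavidin-captured and taken through RT-PCR. Fitness is the logarithm of genotype enrichment over wild-type enrichment, from inverse-variance-weighted replicate averages of Illumina-sequenced inputs and outputs. […] only genotypes with ≥10 input reads and ≥1 read per output were kept.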
Take C56A C80U A111U: the “polymerase ribozyme fitness (log ratio)” value was -4. Turning to C13G U54C C85U U87C, the “polymerase ribozyme fitness (log ratio)” value is -1.99.

Take A5C U7C G17U C86G: the “polymerase ribozyme fitness (log ratio)” value was -3.53. As to C13U G45C C73U C123A, the “polymerase ribozyme fitness (log ratio)” value is 0.429. In the case of G51U C72U, the “polymerase ribozyme fitness (log ratio)” value is -3.99.

C15G A43U C49U A74G: the “polymerase ribozyme fitness (log ratio)” value is -4.91.

Consider U55G C89G, for which the “polymerase ribozyme fitness (log ratio)” value was -1.51.

In the case of C8U U32A U96A A121C U130C, the “polymerase ribozyme fitness (log ratio)” value was -3.85.

With U96A U131G, the “polymerase ribozyme fitness (log ratio)” value was -1.96. As for C15U G44C G93A, the figure is -2.63; as for G44U G61U A111U, -3.66; as for C80G G127U, -6.14. Turning to G17A C20A G61C A119U C124A, the “polymerase ribozyme fitness (log ratio)” value was -5.19. As for A37G G42A C79G C104U, the figure is -4.86; as for G57U C94G, -1.04. G36A U59A C89G: the “polymerase ribozyme fitness (log ratio)” value is -3.6. Turning to A6C C15U C70U C101A U130G, the “polymerase ribozyme fitness (log ratio)” value is -4.08. For the variant A29G G57U G128C, the “polymerase ribozyme fitness (log ratio)” value was -3.73. With C85G C114U, the “polymerase ribozyme fitness (log ratio)” value was -3.59.

On to G60C C123A, for which the “polymerase ribozyme fitness (log ratio)” value is -0.064. Turning to C40U A46U C88U, the “polymerase ribozyme fitness (log ratio)” value was -2. As for C13U C89G, the figure is -1.01; as for A16U A41G G63U C115U, -4.47; as for C8U A95G C102U U106A, -3.3. In the case of C34U G63U, the “polymerase ribozyme fitness (log ratio)” value is -4.85. As for C34A G135U, the figure is -3.05; as for U21G U59A A83U C123U U131C, -0.796. As for C22U C56G, the figure is -3.79; as for G60A U125A, -0.369. Consider C8A C40U C53A, for which the “polymerase ribozyme fitness (log ratio)” value amounted to 0.276. As for U87A A111G G127C U131A, the figure is -3.23; as for A6U G17C, -4.25. As for U7C A74C, the figure is 0.236; as for U9A C72U C123G U134G, 2.67.

Take G45A C115G G127C: the “polymerase ribozyme fitness (log ratio)” value is -4.31. As for C53U A121U, the figure is 0.893.

Consider A27C U55G G57C A111U G122A, for which the “polymerase ribozyme fitness (log ratio)” value is -5.04. With A46U G71U C89U C115A, the “polymerase ribozyme fitness (log ratio)” value was -2.17.

Take C72G C73U G128U: the “polymerase ribozyme fitness (log ratio)” value is -3.92. In the case of C12A G51C, the “polymerase ribozyme fitness (log ratio)” value is -4.5.

Consider G52A G69C C85A G122A U133A, for which the “polymerase ribozyme fitness (log ratio)” value is -4.36. As for C72G G110C, the figure is -2.42; as for G36U C86G, -2.22. For G35C U38G G63C C123A U129A, the “polymerase ribozyme fitness (log ratio)” value was -5.52. Regarding C86U G107U, the “polymerase ribozyme fitness (log ratio)” value was -5.23.

Regarding A6U A18G C20U C73G U125A, the “polymerase ribozyme fitness (log ratio)” value is -2.1. Take G58C U126C: the “polymerase ribozyme fitness (log ratio)” value is -1.22. As for A43U G120A G127A U129C, the figure is -3.11; as for G45A G61U U130G, -0.472; as for C13U A29C G52U C104U G120A U131A, -2.05. As to A37G U55A C73U A83C A90U U125A, the “polymerase ribozyme fitness (log ratio)” value is -2.61. As for G10U C20G C99U C115U, the figure is -8.2; as for C13G C72A U78G, -2.9. As for C13A G120U, the figure is -0.457; as for C64U C114U U125A, -2.95. For the variant A18U U59G G60A, the “polymerase ribozyme fitness (log ratio)” value was -4.56. Turning to C13U C70U U109A U132A, the “polymerase ribozyme fitness (log ratio)” value is -6.56. As for A29C G44C U92C, the figure is -5.1. As for C15A G77A U96A, the figure is -3.85. As for C8G A16U A90U, the figure is -0.236; as for C13G C62U U81A C94U C101U, -3.12; as for C20A G48U, -3.37.

Take C4A C8A C13U G63U A84C: the “polymerase ribozyme fitness (log ratio)” value is -2.38. As for A2G A18U A29G C104G C124U U130G, the figure is -4.82.

In the case of C62U C76G A83U C89G U116C U130G, the “polymerase ribozyme fitness (log ratio)” value was -2.99. As for C4G C64U C115A C123A, the figure is -3.09; as for A29U G58A U106A, -1.28; as for G10A G63U C86U G120A, 0.0567. As for A46U U96C C115U, the figure is -2.77. As for A6C C53G C72A C123U U133C, the figure is 0.968. Regarding C13U G60U, the “polymerase ribozyme fitness (log ratio)” value is -0.0139. As to C13U G60A, the “polymerase ribozyme fitness (log ratio)” value turned out to be 0.0451.

On to C20A C123G, for which the “polymerase ribozyme fitness (log ratio)” value is -0.867. As for G25A G61U, the figure is -3.17. G10C C98U: the “polymerase ribozyme fitness (log ratio)” value was -1.81.

In the case of A27U G69U, the “polymerase ribozyme fitness (log ratio)” value was -1.45. In the case of G44C A84U, the “polymerase ribozyme fitness (log ratio)” value was -1.11. As for U96C U126C, the figure is -1.7; as for G51A C79A G113A, -3.64. As for G52U G60A, the figure is -0.943; as for C80G A105C U116A C123G, -7.31; as for C115A U126C, -0.397. As for A5U C13U U78G C82A C104U U109C, the “polymerase ribozyme fitness (log ratio)” value is -6.49.

The values are drawn from the RNAGym collection of RNA variant scans (doi:10.1073/pnas.2313332121).
